“Also recorded” adds a separate entry of the source.
What was measured:
LHVA-93-3 PRRS virus = test: Light microscopy and immunofluorescence of infected cells; type: cell-based, PRRSV
[1] = system: M-S-S-GP5 peptidic complex; test: ELISA reverse screening: binding to M-S-S-GP5 peptidic complex, type 2; details: type 2 PRRSV complex
Protocol: ssDNA aptamers were denatured at 80° C. for 10 min and then cooled on ice for 10 min. Aptamers (30 nmole) were mixed with 25 μg of M-S-S-GP5 peptidic complex (further described in Example 6 below) in 500 μl selection buffer (50 mM Tris-HCl; pH 7.4, 5 mM KCl, 100 mM NaCl, 1 mM MgCl2 tRNA, 0.2% BSA) at 37° C. for 30 min. Aptamer-peptide complex was purified by adding the 25 μl Ni-NTA superflow and amplified by PCR using primers directed to the common T3 sequences in the aptamer library, and 3′-primer (i.e. -[…]-3′). SELEX was repeated 3 times, following which amplified nucleotides were transformed into E. coli. PCR conditions for SELEX included 5 min 95° C./1 min 95° C./1 min 55° C./1 min 72° C./10 min 72° C. and 100 pmole of each primer.
Selected ssDNA molecules from each individual clone were biotinylated using the B-T3 which is same sequence with 5′ primer (T3 primer), and Klenow fragment (2 unit/ml). To prepare single stranded biotin conjugated CoocSeq5 aptamer for the reverse screening, T3 Primer was Biotin labelled. A 96-well flat bottom ELISA plate was prepared by coating each well with 100 μl of streptavidin (100 μg/ml) diluted in 0.1 M NaHCO3 following by a 37° C. overnight incubation. Following several washings with PBS, wells were blocked with 200 μl of PBS containing 1% BSA for 2 hours at room temperature and subsequent washing three times with PBS-T (10 mM PBS containing 0.05% (v/v) Tween-20). […]
High binding capacity ELISA plates (Immunoplate, Nunc) were coated with 100 μl allantoic fluid containing 500 TCID50 of various PRRS virus strains diluted in phosphate buffered saline (PBS) by incubating at 4° C. overnight. […] Following this incubation period, plates were washed five times in PBS-T and bound antibodies were detected using horseradish peroxidase labelled goat anti-mouse IgG conjugates (HRP). […] Reaction was terminated with 50 μl of 2M H2SO4, plates were read with a multichannel spectrophotometer at 570 nm.

[2] = system: type 2 PRRSV (VR2332, LHVA-93-3, NVSL-93-2335); test: Strain-specific neutralization (FIG. 11), type 2 strains; type: cell-based
NVSL PRRS virus = test: MTT assay, in vitro protection of PAMs or MARC-145 cells from NVSL infection; type: cell-based, PRRSV; details: 500 pmole, compared to non-infected MARC-145 cells, FIG. 9b
Protocol: PAMs or MARC-145 cells were plated in 96 well plates (7×10^4/well) one day prior to the assay. Cells were washed twice with Dulbecco's phosphate buffered saline (DPBS) prior to an one (1) hour incubation with Hank's balanced salt solution (HBSS) supplemented with 25 mM HEPES and 4 mM sodium bicarbonate (pH 7.3) including 500TCID50 of LHVA-3 or 500TCID50 of NVSL in the presence or absence of the indicated aptamer concentration. Following infection, cells were incubated in growth medium at 37° C. for 72 hours. MTT assay was performed by adding 4 mg/ml MTT (3-[4,5-Dimethylthiazol-2-yl]-2,5-diphenyltetrazolium bromide dissolved in PBS to the cell cultures and incubation at 37° C. for 3 hours. Plates were then centrifuged at 800×g for 10 min. Supernatants were aspirated and the formazan dye was dissolved in 150 μl/well of isopropyl alcohol, and O.D. values were determined with an ELISA reader at 570 nm.
In Vitro Viral Protection Prior to Viral Infection PAMs or MARC-145 cells were plated on 96 well plates (7×10^4/well) 24 hours prior to the experiment. Each well was washed twice with DPBS prior to treating the cells with various amounts of A505 (12.5 to 2000 pmole) at 37° C. for the indicated time points. Cells were then washed twice with DPBS and infected with 500 TCID50 LHVA-3 (or NVSL or VR-2332 or Lelystad) for 1 hour in enriched HBSS. […]

MARC-145 cells = details: no virus; FIG. 10c
various PRRSV strains = test: In-vivo protection of swine against various PRRSV strains (Example 4); details: 15 ug/Kg, treatment on the day of infection; each strain 40TCID50/ml; FIG. 13a
Protocol: Swine were inoculated intranasally with sub-lethal infectious fluid containing 40TCID50/ml PRRS virus (LHVA-93-3) with or without 2.5 nmole A505 aptamer for different time intervals. Pig body weight was monitored for 2 weeks. Viral titer in the lungs was determined by the CPE titration method (OIE Terrestrial Manual—May 2015, Chapter 2.8.7—Porcine Reproductive and Respiratory Syndrome, section 1.1.3). Other pigs were sacrificed 6 days following viral inoculation and lungs were removed and homogenized in PBS 0.1% BSA (10% w/v). Following homogenization, samples were centrifuged to remove debris and stored at −80° C.
The cells/viruses were incubated for 2-5 days and observe daily for a CPE. At day 2, seed macrophages in new microtitre plates. Fifty (50) μl of the supernatants were transferred from the plates of the first passage to the corresponding wells of the freshly seeded plates (second passage). The wells were incubated for 2-5 days and observed daily for a CPE. The results of the CPE assays were presented as log TCID50.
Were implemented as described hereinabove. A dose of 15 ug/Kg of A505 was used.

B1: A505: ssDNA aptamer binding type 2 PRRSV M-S-S-GP5 complex (nucleic acid)
DNA: GGGCGACCCTGAAGAGTTTGTAATCTGCGATTTTAAAGTTGAGTCGTCGCGAAACGGTGAAAGCCGTAGGTTGCCC
modifications: DNA, backbone and methylation of C not given here
- cell morphology of infected cells, light microscopy (LHVA-93-3 PRRS virus; MARC-145 cells, virus in the presence of aptamer, FIG. 10b): destruction was inhibited and the cell morphology was largely conserved
- viral presence by immunofluorescence (LHVA-93-3 PRRS virus; two days incubation with virus and aptamer, FIG. 10e): almost entirely prevented
- binding to the M-S-S-GP5 complex/heterodimer [1]: highly significant differences from the control ssDNA; also recorded: binding capacity to the M-S-S-GP5 complex; also recorded: found to bind the M-S-S-GP5 heterodimer
- neutralization of PRRS virus strains [2]: only the type 2 PRRSV have been neutralized
- protection against infection of the cells (NVSL PRRS virus): ~70%
- morphology of cells treated with aptamer alone (MARC-145 cells): did not affect the morphology of the cells
- prevention of infection (lung virus titer) by various strains (various PRRSV strains): efficient in preventing the infection by all tested strains of PRRSV
